Substitutions are numbered along the chain they refer to. One block for each binder: values may come before it.
Experiments:
[1] = molecular target: T1, cytoplasmic domain-lacking human NR10 on CHO cells (hNR10-expressing CHO cells) (human, UniProt Q8NI17 20-553); assay: FMAT competition on hNR10-expressing CHO cells: antibody titrated against FMAT Blue-labeled hIL-31; FL1 = cell-bound labeled hIL-31
T1 construct: also called NR10-expressing cells
T1 sequence: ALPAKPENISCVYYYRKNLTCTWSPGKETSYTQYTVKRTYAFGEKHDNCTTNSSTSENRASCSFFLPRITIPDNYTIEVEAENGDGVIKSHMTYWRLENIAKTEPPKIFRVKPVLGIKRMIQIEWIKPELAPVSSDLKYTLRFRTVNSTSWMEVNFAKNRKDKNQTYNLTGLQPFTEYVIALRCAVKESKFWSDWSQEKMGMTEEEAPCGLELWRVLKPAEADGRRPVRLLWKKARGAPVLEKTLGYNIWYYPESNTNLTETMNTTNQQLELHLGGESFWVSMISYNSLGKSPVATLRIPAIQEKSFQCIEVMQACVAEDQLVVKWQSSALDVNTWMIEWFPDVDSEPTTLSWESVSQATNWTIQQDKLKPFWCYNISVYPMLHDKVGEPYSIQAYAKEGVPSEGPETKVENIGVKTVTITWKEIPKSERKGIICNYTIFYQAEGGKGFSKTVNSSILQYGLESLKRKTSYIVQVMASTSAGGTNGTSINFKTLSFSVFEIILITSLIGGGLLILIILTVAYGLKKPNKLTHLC
Protocol: (§1) Human IL-31 (R&D Systems) was labeled with FMAT Blue Monofunctional Reactive Dye (Applied Biosystems). 100 μl of hIL-31 prepared at 0.5 mg/ml using 50 mM sodium phosphate buffer (pH 8.0) was mixed with 5.25 μl of 25 nmoles FMAT Blue dissolved in DMSO (Junsei). After vortexing, the mixture was allowed to stand at room temperature for 15 minutes. The FMAT Blue-conjugating reaction with hIL-31 was terminated by adding 5 μl of 1 M Tris-HCl (pH 7.4) and 1.1 μl of 10% Tween20, and then FMAT Blue-labeled hIL-31 and unreacted FMAT Blue were separated by gel filtration using Superdex 75 (GE Healthcare, 17-0771-01) column with 0.1% Tween20/PBS developing solution.
Antibodies were assessed for the activity of inhibiting the IL-31/NR10 binding by using hNR10-expressing CHO cells as described below. The chimeric NS22 antibody and NS22_H0L0 (H chain, H0-SKSC/SEQ ID NO: 54; L chain, L0/SEQ ID NO: 56) were diluted at an appropriate concentration using Assay buffer (10 mM HEPES, 140 mM NaCl, 2.5 mM CaCl₂, 3 mM MgCl₂, 2% FBS, 0.01% NaN₃, pH7.4), and further eight serial dilutions were prepared at a common dilution ration of 2. The dilutions were added at 40 μl/well to plates (96-Well FMAT Plates, Applied Biosystems). Then, FMAT Blue-labeled hIL-31 was diluted 400 times with Assay buffer, and added at 20 μl/well. Finally, a cell suspension adjusted to 2.5×10⁵ cells/ml using Assay buffer was added at 40 μl/well (final 1×10⁴ cells/well). Two hours after addition of cells, the fluorescence (FL1) was measured using the 8200 Cellular Detection System (Applied Biosystems).

[2] = molecular target: T1, cytoplasmic domain-lacking human NR10 …; assay: FMAT competition on hNR10-expressing CHO cells: unlabeled chimeric antibody titrated against 8.8x10^-2 µg/ml FMAT Blue-NS22; FL1 = cell-bound labeled NS22
Protocol: The antibody NS22 purified from a hybridoma culture supernatant was labeled with FMAT Blue (Applied Biosystems, 4328853). 170 μl of NS22 prepared at 1 mg/ml in PBS was mixed with 17 μl of 1 M NaHCO₃ solution and 3.4 μl of FMAT Blue (17 nmoles) dissolved in DMSO. After vortexing, the mixture was allowed to stand at room temperature for 30 minutes. The FMAT Blue conjugating reaction with NS22 was terminated by adding 8 μl of 1 M Tris-HCl (pH 7.4) and 1.9 μl of 1% Tween 20, and then FMAT Blue-labeled NS22 (FMAT Blue-NS22) and unreacted FMAT Blue were separated by gel filtration using Superdex 75 (GE Healthcare, 17-0771-01) column with 0.01% Tween20/PBS developing solution.
Each antibody was examined for inhibition of the binding of the prepared FMAT Blue-NS22 to hNR10-expressing CHO cells (Referential Example 3) using the 8200 Cellular Detection System (Applied Biosystems, 4342920). The chimeric anti-NR10 antibodies (the constant region of each is γ1, κ) were added at various concentrations to each well containing 7500 cells and 8.8×10⁻² μg/ml FMAT Blue-NS22. The cells were allowed to stand in the dark for four hours, and then the fluorescent signal from FMAT Blue bound to the cells was measured. […] The fluorescence value FL1, which represents the binding of FMAT Blue-NS22 to NR10-expressing cells, was reduced with the increase in the concentration of antibody NS22 or NS23.

[3] = molecular target: T1, cytoplasmic domain-lacking human NR10 …; assay: FMAT competition on hNR10-expressing CHO cells: antibody titrated against FMAT Blue-labeled hIL-31; FL1 = cell-bound labeled hIL-31; remark: listed apart in the source
Protocol: as §1
NS22 and NA633 (the constant region of each is γ1, κ) were diluted at an appropriate concentration using Assay buffer (10 mM HEPES, 140 mM NaCl, 2.5 mM CaCl₂, 3 mM MgCl₂, 2% FBS, 0.01% NaN₃), and then seven serial dilutions were prepared at a common dilution ratio of 2. The dilutions were added at 40 μl/well to plates (96-Well FMAT Plates; Applied Biosystems). Then, FMAT Blue-labeled hIL-31 was diluted 400 times with Assay buffer and added at 20 μl/well. Finally, cell suspensions adjusted to 2.5×10⁵ cells/ml using Assay buffer were added at 40 μl/well (final 1×10⁴ cells/well). Two hours after addition of cells, the fluorescence (FL1) was determined using the 8200 Cellular Detection System (Applied Biosystems).

- IC50 (read off the curve) [1]: ~0.1 µg/mL
- IC50 (read off the curve) [2]: ~0.5 µg/mL
B1: chimeric NS22 (human gamma1, kappa) (antibody, V domains shown)
VH: EVQLQQSGPELVKPGASMKISCKASGYSFTGYIMNWVKQSHGKNLEWIGLINPYNGGTSYNQKFKGKATLTVDKSSSTAYMELLSLTSEDSAVYYCARDGYDDGPYTMDYWGQGTSVTVSS
VL: DIQMTQSPASLSASVGETVTITCRTSENIYSFLAWYQQKQGKSPHLLVYNAKTLAKGVPSRFSGSGSGTQFSLKINSLQPEDFGSYFCQHHYESPLTFGGGTKLEIK
notes: also called chimeric NS22 antibody; the chimeric antibody

- IC50 (read off the curve) [2]: ~0.5 µg/mL
B2: chimeric NS23 (human gamma1, kappa) (antibody, V domains shown)
VH: B1 VH with A16T, T58A, S59E, G66D, L70F
VL: B1 VL with I21F, T25A, S26N, F32Y, H45Q, K56E, F87Y, E93G, S94T, L96P

- binding result [3]: binds
B3: chimeric NA633 (human gamma1, kappa) (antibody, V domains shown)
VH: DVQLRESGPGLVKPSQSLSLTCTVTGYSITSDYAWNWIRQFPGNKLEWMGYISYSGSTSYNPSLKSRVSITRDTSKNQFFLQLNSVTTEDTATYYCAPMITTDWFFDVWGAGTTVTVSS
VL: DIVMTQSPATLSVTPGDRVSLSCRASHDISDFLHWYQQKSHESPRLLIKYASQSISGIPSRFSGSGSGSDFTLSINSVEPEDVGVYYCQNGHSFPWTFGGGTKLEIK
notes: Mouse variable regions with human constant regions (H chain gamma1)

From patent publication US20110129459A1 (Chugai, published 2011)
